Source: paper doi:10.1101/681668 (bioRxiv, 2019)

T1: GST-CDC6 (human, UniProt Q99741 1-560)
T1 sequence: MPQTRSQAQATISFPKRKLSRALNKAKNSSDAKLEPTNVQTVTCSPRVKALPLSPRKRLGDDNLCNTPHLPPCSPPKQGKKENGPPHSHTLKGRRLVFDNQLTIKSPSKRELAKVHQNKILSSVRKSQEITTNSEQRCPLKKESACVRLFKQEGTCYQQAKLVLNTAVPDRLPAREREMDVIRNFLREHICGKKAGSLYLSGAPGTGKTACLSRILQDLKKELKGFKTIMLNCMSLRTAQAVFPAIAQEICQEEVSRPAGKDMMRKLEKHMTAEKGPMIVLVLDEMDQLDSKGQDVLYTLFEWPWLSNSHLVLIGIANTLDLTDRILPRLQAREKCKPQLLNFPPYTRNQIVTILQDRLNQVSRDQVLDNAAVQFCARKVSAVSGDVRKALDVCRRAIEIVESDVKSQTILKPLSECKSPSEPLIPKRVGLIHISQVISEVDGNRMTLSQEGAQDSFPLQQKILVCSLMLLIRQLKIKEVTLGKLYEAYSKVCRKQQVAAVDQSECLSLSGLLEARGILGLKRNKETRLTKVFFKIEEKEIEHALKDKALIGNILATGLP

T2: ORC1 230-400-His (human, UniProt Q13415 230-400)
T2 sequence: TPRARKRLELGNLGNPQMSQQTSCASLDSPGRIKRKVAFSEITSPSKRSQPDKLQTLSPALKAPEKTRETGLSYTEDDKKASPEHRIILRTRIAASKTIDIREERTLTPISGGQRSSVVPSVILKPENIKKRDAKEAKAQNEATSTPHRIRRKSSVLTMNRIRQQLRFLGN

T3: MBP-ORC1 (human, UniProt Q13415 1-861)
T3 sequence: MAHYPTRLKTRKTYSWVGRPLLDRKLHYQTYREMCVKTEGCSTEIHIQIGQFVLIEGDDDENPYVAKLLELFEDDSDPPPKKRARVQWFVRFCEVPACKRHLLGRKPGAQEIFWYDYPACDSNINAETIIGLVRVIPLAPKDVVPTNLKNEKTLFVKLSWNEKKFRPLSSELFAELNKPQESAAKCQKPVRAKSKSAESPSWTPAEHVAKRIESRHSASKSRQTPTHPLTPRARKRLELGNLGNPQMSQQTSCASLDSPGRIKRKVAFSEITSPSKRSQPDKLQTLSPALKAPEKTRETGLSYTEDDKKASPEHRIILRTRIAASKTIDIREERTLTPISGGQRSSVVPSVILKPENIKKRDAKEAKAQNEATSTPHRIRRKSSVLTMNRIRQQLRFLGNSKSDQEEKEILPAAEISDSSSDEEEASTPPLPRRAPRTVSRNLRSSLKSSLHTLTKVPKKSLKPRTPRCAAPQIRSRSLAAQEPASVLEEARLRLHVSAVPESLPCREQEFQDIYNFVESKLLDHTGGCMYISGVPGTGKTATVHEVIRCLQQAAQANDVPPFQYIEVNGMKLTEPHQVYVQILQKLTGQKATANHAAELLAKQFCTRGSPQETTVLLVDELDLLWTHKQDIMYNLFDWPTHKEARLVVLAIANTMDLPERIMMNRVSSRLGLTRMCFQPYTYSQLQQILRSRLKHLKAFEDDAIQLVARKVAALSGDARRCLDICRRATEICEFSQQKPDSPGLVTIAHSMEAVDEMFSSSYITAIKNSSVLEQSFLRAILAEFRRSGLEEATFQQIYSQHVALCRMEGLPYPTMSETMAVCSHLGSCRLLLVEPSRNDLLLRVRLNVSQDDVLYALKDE

B1: MBP-ORC1-230-400 (domain or fragment)
chain: TPRARKRLELGNLGNPQMSQQTSCASLDSPGRIKRKVAFSEITSPSKRSQPDKLQTLSPALKAPEKTRETGLSYTEDDKKASPEHRIILRTRIAASKTIDIREERTLTPISGGQRSSVVPSVILKPENIKKRDAKEAKAQNEATSTPHRIRRKSSVLTMNRIRQQLRFLGN
B2: ORC1-180-240-His (domain or fragment)
chain: QESAAKCQKPVRAKSKSAESPSWTPAEHVAKRIESRHSASKSRQTPTHPLTPRARKRLELG

These binders were tested against T1, GST-CDC6 (assay: pull-down).

Binder	binding result
MBP-ORC1 1-240 (domain or fragment) MAHYPTRLKTRKTYSWVGRPLLDRKLHYQTYREMCVKTEGCSTEIHIQIGQFVLIEGDDDENPYVAKLLELFEDDSDPPPKKRARVQWFVRFCEVPACKRHLLGRKPGAQEIFWYDYPACDSNINAETIIGLVRVIPLAPKDVVPTNLKNEKTLFVKLSWNEKKFRPLSSELFAELNKPQESAAKCQKPVRAKSKSAESPSWTPAEHVAKRIESRHSASKSRQTPTHPLTPRARKRLELG	binds
B1	binds
MBP-ORC1 180-400 (domain or fragment) QESAAKCQKPVRAKSKSAESPSWTPAEHVAKRIESRHSASKSRQTPTHPLTPRARKRLELGNLGNPQMSQQTSCASLDSPGRIKRKVAFSEITSPSKRSQPDKLQTLSPALKAPEKTRETGLSYTEDDKKASPEHRIILRTRIAASKTIDIREERTLTPISGGQRSSVVPSVILKPENIKKRDAKEAKAQNEATSTPHRIRRKSSVLTMNRIRQQLRFLGN	binds
MBP-ORC1 fragment (165-250) (domain or fragment) FRPLSSELFAELNKPQESAAKCQKPVRAKSKSAESPSWTPAEHVAKRIESRHSASKSRQTPTHPLTPRARKRLELGNLGNPQMSQQ	binds
MBP-ORC1-180-240 (domain or fragment) QESAAKCQKPVRAKSKSAESPSWTPAEHVAKRIESRHSASKSRQTPTHPLTPRARKRLELG	binds
MBP-ORC1-350-400 (domain or fragment) SVILKPENIKKRDAKEAKAQNEATSTPHRIRRKSSVLTMNRIRQQLRFLGN	binds
MBP-ORC1-230-400 A-A (domain or fragment) TPRARARAELGNLGNPQMSQQTSCASLDSPGRIKRKVAFSEITSPSKRSQPDKLQTLSPALKAPEKTRETGLSYTEDDKKASPEHRIILRTRIAASKTIDIREERTLTPISGGQRSSVVPSVILKPENIKKRDAKEAKAQNEATSTPHRIRRKSSVLTMNRIRQQLRFLGN	binds

These binders were tested against B1 (assay: pull-down).

Binder	binding result
B2	binds

The binders below were run against B2 (assay: pull-down).

Binder	binding result
MBP-ORC1-350-400 (domain or fragment) SVILKPENIKKRDAKEAKAQNEATSTPHRIRRKSSVLTMNRIRQQLRFLGN	binds

Each binder was assayed against T2, ORC1 230-400-His (assay: pull-down).

Binder	binding result
MBP-ORC1-100-250 (domain or fragment) RHLLGRKPGAQEIFWYDYPACDSNINAETIIGLVRVIPLAPKDVVPTNLKNEKTLFVKLSWNEKKFRPLSSELFAELNKPQESAAKCQKPVRAKSKSAESPSWTPAEHVAKRIESRHSASKSRQTPTHPLTPRARKRLELGNLGNPQMSQQ	binds

These binders were tested against T3, MBP-ORC1 (assay: pull-down).

Binder	binding result
GST-CDC6 with internal deletion of 71-90 (natural protein) MPQTRSQAQATISFPKRKLSRALNKAKNSSDAKLEPTNVQTVTCSPRVKALPLSPRKRLGDDNLCNTPHLLKGRRLVFDNQLTIKSPSKRELAKVHQNKILSSVRKSQEITTNSEQRCPLKKESACVRLFKQEGTCYQQAKLVLNTAVPDRLPAREREMDVIRNFLREHICGKKAGSLYLSGAPGTGKTACLSRILQDLKKELKGFKTIMLNCMSLRTAQAVFPAIAQEICQEEVSRPAGKDMMRKLEKHMTAEKGPMIVLVLDEMDQLDSKGQDVLYTLFEWPWLSNSHLVLIGIANTLDLTDRILPRLQAREKCKPQLLNFPPYTRNQIVTILQDRLNQVSRDQVLDNAAVQFCARKVSAVSGDVRKALDVCRRAIEIVESDVKSQTILKPLSECKSPSEPLIPKRVGLIHISQVISEVDGNRMTLSQEGAQDSFPLQQKILVCSLMLLIRQLKIKEVTLGKLYEAYSKVCRKQQVAAVDQSECLSLSGLLEARGILGLKRNKETRLTKVFFKIEEKEIEHALKDKALIGNILATGLP	binds
GST-CDC6 with internal deletion of 51-70 (natural protein) MPQTRSQAQATISFPKRKLSRALNKAKNSSDAKLEPTNVQTVTCSPRVKAPPCSPPKQGKKENGPPHSHTLKGRRLVFDNQLTIKSPSKRELAKVHQNKILSSVRKSQEITTNSEQRCPLKKESACVRLFKQEGTCYQQAKLVLNTAVPDRLPAREREMDVIRNFLREHICGKKAGSLYLSGAPGTGKTACLSRILQDLKKELKGFKTIMLNCMSLRTAQAVFPAIAQEICQEEVSRPAGKDMMRKLEKHMTAEKGPMIVLVLDEMDQLDSKGQDVLYTLFEWPWLSNSHLVLIGIANTLDLTDRILPRLQAREKCKPQLLNFPPYTRNQIVTILQDRLNQVSRDQVLDNAAVQFCARKVSAVSGDVRKALDVCRRAIEIVESDVKSQTILKPLSECKSPSEPLIPKRVGLIHISQVISEVDGNRMTLSQEGAQDSFPLQQKILVCSLMLLIRQLKIKEVTLGKLYEAYSKVCRKQQVAAVDQSECLSLSGLLEARGILGLKRNKETRLTKVFFKIEEKEIEHALKDKALIGNILATGLP	binds
GST-CDC6 1-110 (domain or fragment) MPQTRSQAQATISFPKRKLSRALNKAKNSSDAKLEPTNVQTVTCSPRVKALPLSPRKRLGDDNLCNTPHLPPCSPPKQGKKENGPPHSHTLKGRRLVFDNQLTIKSPSKR	binds
GST-CDC6 with internal deletion of 11-20 (natural protein) MPQTRSQAQARALNKAKNSSDAKLEPTNVQTVTCSPRVKALPLSPRKRLGDDNLCNTPHLPPCSPPKQGKKENGPPHSHTLKGRRLVFDNQLTIKSPSKRELAKVHQNKILSSVRKSQEITTNSEQRCPLKKESACVRLFKQEGTCYQQAKLVLNTAVPDRLPAREREMDVIRNFLREHICGKKAGSLYLSGAPGTGKTACLSRILQDLKKELKGFKTIMLNCMSLRTAQAVFPAIAQEICQEEVSRPAGKDMMRKLEKHMTAEKGPMIVLVLDEMDQLDSKGQDVLYTLFEWPWLSNSHLVLIGIANTLDLTDRILPRLQAREKCKPQLLNFPPYTRNQIVTILQDRLNQVSRDQVLDNAAVQFCARKVSAVSGDVRKALDVCRRAIEIVESDVKSQTILKPLSECKSPSEPLIPKRVGLIHISQVISEVDGNRMTLSQEGAQDSFPLQQKILVCSLMLLIRQLKIKEVTLGKLYEAYSKVCRKQQVAAVDQSECLSLSGLLEARGILGLKRNKETRLTKVFFKIEEKEIEHALKDKALIGNILATGLP	binds
GST-CDC6 with internal deletion of 21-30 (natural protein) MPQTRSQAQATISFPKRKLSDAKLEPTNVQTVTCSPRVKALPLSPRKRLGDDNLCNTPHLPPCSPPKQGKKENGPPHSHTLKGRRLVFDNQLTIKSPSKRELAKVHQNKILSSVRKSQEITTNSEQRCPLKKESACVRLFKQEGTCYQQAKLVLNTAVPDRLPAREREMDVIRNFLREHICGKKAGSLYLSGAPGTGKTACLSRILQDLKKELKGFKTIMLNCMSLRTAQAVFPAIAQEICQEEVSRPAGKDMMRKLEKHMTAEKGPMIVLVLDEMDQLDSKGQDVLYTLFEWPWLSNSHLVLIGIANTLDLTDRILPRLQAREKCKPQLLNFPPYTRNQIVTILQDRLNQVSRDQVLDNAAVQFCARKVSAVSGDVRKALDVCRRAIEIVESDVKSQTILKPLSECKSPSEPLIPKRVGLIHISQVISEVDGNRMTLSQEGAQDSFPLQQKILVCSLMLLIRQLKIKEVTLGKLYEAYSKVCRKQQVAAVDQSECLSLSGLLEARGILGLKRNKETRLTKVFFKIEEKEIEHALKDKALIGNILATGLP	binds
